The target in this experiment is CXCR4 (C-X-C Motif Chemokine Receptor 4) (human) (UniProt P61073). Kind of experiment: cell-based or functional assay.
Chain of CXCR4 (C-X-C Motif Chemokine Receptor 4) (human) (P61073 whole entry): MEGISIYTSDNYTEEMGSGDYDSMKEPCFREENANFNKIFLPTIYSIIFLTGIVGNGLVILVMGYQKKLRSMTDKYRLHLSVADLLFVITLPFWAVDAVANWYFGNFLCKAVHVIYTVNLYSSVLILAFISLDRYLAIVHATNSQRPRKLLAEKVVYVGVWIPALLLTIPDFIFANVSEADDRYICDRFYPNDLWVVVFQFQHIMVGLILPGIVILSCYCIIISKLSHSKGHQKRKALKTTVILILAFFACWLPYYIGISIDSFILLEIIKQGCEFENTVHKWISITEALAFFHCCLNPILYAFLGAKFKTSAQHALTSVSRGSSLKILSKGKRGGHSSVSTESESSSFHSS

Turning to BKT140 (peptide), the IC50 of Ca2+ response, MDA-MB-231 cells expressing CXCR4 alone was 579 nM; the IC50 of Ca2+ response, MDA-MB-231 cells with CXCR4 + ADRB2, with Carvedilol 600 nM worked out at 1.94 nM; the IC50 of Ca2+ response, MDA-MB-231 cells with CXCR4 + ADRB2, without Carvedilol was found to be 88.7 nM.

The values are drawn from patent US20220273751A1, “GPCR HETEROMER INHIBITORS AND USES THEREOF” (GPCR THERAPEUTICS, INC., priority 2019, published 2022).
